Results published in publication PMC13458718, “HSV-1 origin binding protein UL9 forms intermolecular DNA tethers and intramolecular DNA loops” (Nature Communications, 2026).

Columns and labels:
[1] = biological target: T1, HSV-1 UL9 (origin-binding protein UL9) (Human alphaherpesvirus 1 strain 17, UniProt P10193); test: single-molecule TIRF (ALEX), UL9-atto647N dwell time on oriS DNA; settings: 1 mM ATPγS, 20 nM UL9-atto647N, 1 mM MgCl2, pH 7.5; not an affinity constant
T1 construct: full ORF from plasmid pCM-UL9, C-terminal 3C-ybbR-TEV-StrepII tag, insect cells (Sf9/High5), StrepTrap and heparin; dimer; tag kept in unlabeled protein, TEV added on atto647N labelling

[2] = biological target: T2, UL9 origin-binding protein (Human herpesvirus 1 (HSV-1)) (UniProt P10193); test: EMSA; settings: C6-amino-dT at 5' end of strand 1 and internal (position 10) in strand 2; UL9 buffer: 40 mM Tris-Cl pH 7.5, 50 mM NaCl, 50 mM K-glutamate, 1 mM MgCl2, 0.5 mM DTT, 0.1 mg/ml BSA; EMSA at room temperature, 5 min; TIRF with oxygen …
T2 sequence: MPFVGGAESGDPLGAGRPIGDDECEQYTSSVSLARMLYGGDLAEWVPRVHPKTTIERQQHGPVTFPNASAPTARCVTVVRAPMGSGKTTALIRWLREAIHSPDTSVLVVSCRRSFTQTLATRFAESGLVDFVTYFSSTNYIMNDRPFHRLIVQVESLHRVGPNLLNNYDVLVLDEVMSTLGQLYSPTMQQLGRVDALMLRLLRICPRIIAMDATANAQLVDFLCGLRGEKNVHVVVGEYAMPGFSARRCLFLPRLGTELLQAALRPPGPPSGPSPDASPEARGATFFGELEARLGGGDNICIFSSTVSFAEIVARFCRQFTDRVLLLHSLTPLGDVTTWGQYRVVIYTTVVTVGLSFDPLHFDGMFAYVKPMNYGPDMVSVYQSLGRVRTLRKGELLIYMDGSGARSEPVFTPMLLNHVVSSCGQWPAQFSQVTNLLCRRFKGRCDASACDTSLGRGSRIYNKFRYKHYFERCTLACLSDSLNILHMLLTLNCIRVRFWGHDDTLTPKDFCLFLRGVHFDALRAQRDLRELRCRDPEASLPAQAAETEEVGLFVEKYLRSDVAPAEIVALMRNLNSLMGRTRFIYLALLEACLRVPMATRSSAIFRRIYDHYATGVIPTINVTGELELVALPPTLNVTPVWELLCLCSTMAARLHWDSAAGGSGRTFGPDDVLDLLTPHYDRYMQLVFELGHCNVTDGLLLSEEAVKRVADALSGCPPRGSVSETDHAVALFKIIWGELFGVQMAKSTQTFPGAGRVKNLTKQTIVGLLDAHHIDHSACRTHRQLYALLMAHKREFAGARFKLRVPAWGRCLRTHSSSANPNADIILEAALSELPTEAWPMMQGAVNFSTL

[3] = biological target: T3, UL9-atto647N (Human herpesvirus 1 (HSV-1)) (UniProt P10193); test: single-molecule TIRF/FRET; settings: C6-amino-dT at 5' end of strand 1 and internal (position 10) in strand 2; UL9 buffer: 40 mM Tris-Cl pH 7.5, 50 mM NaCl, 50 mM K-glutamate, 1 mM MgCl2, 0.5 mM DTT, 0.1 mg/ml BSA; EMSA at room temperature, 5 min; TIRF with oxygen …
T3 sequence: T2 sequence

[4] = biological target: the molecule itself; test: single-molecule photobleaching steps (prism-TIRF with alternating laser excitation)
[5] = biological target: UL9 origin-binding protein (Human herpesvirus 1 (HSV-1), UniProt P10193 1-851); test: single-molecule TIRF DNA capture; trans tethering to immobilized oriS (30.0 ± 6.9% of molecules); 20 nM UL9, no ATP; UL9 buffer: 40 mM Tris-Cl pH 7.5, 50 mM NaCl, 50 mM K-glutamate, 1 mM MgCl2, 0.5 mM DTT, 0.1 mg/ml BSA; EMSA at room temperature, 5 min; TIRF with oxygen scavenger; settings: protein: recombinant; tags: C-terminal 3C-ybbR-TEV-StrepII; chain copies: 2; label: Cy5 on strand 1; strand 1 5' overhang 1 nt (amino-dT)

Molecule: Nc1ncnc2c1ncn2[C@@H]1O[C@H](COP(=O)(O)OP(=O)(O)OP(O)(O)=S)[C@@H](O)[C@H]1O [ATPγS]
- τon, avg [1]: 4.2 ± 0.1 s

Molecule: TCCAGTGCTCGCACTTCGCCCTAATAATATATATATATTGGGACGAAGTGCGAACGCTTCGCGTTCTCACTTC / AAAAAAAAATGAAGTGAGAACGCGAAGCGTTCGCACTTCGTCCCAATATATATATATTATTAGGGCGAAGTGCGAGCACTGG [oriS template AM057/AM071]
- K half [2]: 13 nM
- Kd [2]: 131 nM
- Kd [3]: 31.9 nM

B1: HSV-1 origin-binding protein UL9 labelled at its C-terminus with atto647N through a ybbR-tag (natural protein)
chain: T2 sequence
modifications: atto647N (CoA-conjugated dye, attached by Sfp transferase) on the C-terminal ybbR tag
notes: also called UL9-atto647N; not shown: ybbR, C-terminal, kept; strepII, C-terminal, cleaved
- stoichiometry N [4]: 2

B2: Cy5-oriS capture DNA AM057/AM058 (dsDNA)
DNA 1: TCCAGTGCTCGCACTTCGCCCTAATAATATATATATATTGGGACGAAGTGCGAACGCTTCGCGTTCTCACTTC
DNA 2: GAAGTGAGAACGCGAAGCGTTCGCACTTCGTCCCAATATATATATATTATTAGGGCGAAGTGCGAGCACTGG
modifications: C6-amino-dT at 5' end of strand 1
- binding result [5]: binds
